This is an account of results in patent US20250206818A1 (AGENUS, published 2025).

To fix the notation:
B1: P13B02-06 (antibody, IgG1, V domains shown)
VH: QVQLVQSGAEVKKPGASVKVSCKASGFNIKDTYIHWVRQAPGQGLEWMGEIDPANDNTKYDPKFQGRVTITADTSTSTVYMELSSLRSEDTAVYYCATYYYRYDVGGFDYWGQGTLVTVSS
VL: EIVLTQSPGTLSLSPGERATLSCSVSSSISSSNLHWYQQKPGQAPRLLIYGTSNLASGIPDRFSGSGSGTDFTLTISRLEPEDFAVYYCQQWSSYPFTFGQGTKVEIK
notes: Humanized; generated as full length IgG1; also called P13B02-06 (IgG1)
B2: P13B02-26 (antibody, IgG1, V domains shown)
VH: B1 VH with L4M, V5K, K12V, K23T, M48I, T76S, S77N, M81L, E82Q, R102K
VL: B1 VL with V3L, S22T, Y37F, A44S, L48W, I59V, D71S, F72Y
notes: Humanized; VH is H4_R98K; generated as full length IgG1; also called P13B02-26 (IgG1)
B3: P13B02-16 (antibody, IgG1, V domains shown)
VH: B1 VH with L4M, V5K, K23T, T76S, S77N
VL: B1 VL
notes: Humanized; generated as full length IgG1; also called P13B02-16 (IgG1)
B4: P13B02-27 (antibody, IgG1, V domains shown)
VH: B1 VH with L4M, V5K, K12V, K23T, M48I, T76S, S77N, M81L, E82Q, D104E
VL: B1 VL with V3L, S22T, Y37F, A44S, L48W, I59V, D71S, F72Y
notes: Humanized; VH is H4_D100E; generated as full length IgG1; also called P13B02-27 (IgG1)
B5: P13B02-25 (antibody, IgG1, V domains shown)
VH: B1 VH with L4M, V5K, K12V, K23T, M48I, T76S, S77N, M81L, E82Q
VL: B1 VL with V3L, S22T, Y37F, A44S, L48W, I59V, D71S, F72Y
notes: Humanized; generated as full length IgG1; also called P13B02-25 (IgG1)
B6: P13B02-07 (antibody, IgG1, V domains shown)
VH: B1 VH
VL: B1 VL with D71S, F72Y
notes: Humanized; generated as full length IgG1; also called P13B02-07 (IgG1)

Residue numbers refer to the chain shown, from its start.

One experiment has as its target T1, human LAG-3 expressed on cells (human, UniProt P18627 23-525).
T1 construct: whole, on cells; also called CD223
T1 sequence (looked up): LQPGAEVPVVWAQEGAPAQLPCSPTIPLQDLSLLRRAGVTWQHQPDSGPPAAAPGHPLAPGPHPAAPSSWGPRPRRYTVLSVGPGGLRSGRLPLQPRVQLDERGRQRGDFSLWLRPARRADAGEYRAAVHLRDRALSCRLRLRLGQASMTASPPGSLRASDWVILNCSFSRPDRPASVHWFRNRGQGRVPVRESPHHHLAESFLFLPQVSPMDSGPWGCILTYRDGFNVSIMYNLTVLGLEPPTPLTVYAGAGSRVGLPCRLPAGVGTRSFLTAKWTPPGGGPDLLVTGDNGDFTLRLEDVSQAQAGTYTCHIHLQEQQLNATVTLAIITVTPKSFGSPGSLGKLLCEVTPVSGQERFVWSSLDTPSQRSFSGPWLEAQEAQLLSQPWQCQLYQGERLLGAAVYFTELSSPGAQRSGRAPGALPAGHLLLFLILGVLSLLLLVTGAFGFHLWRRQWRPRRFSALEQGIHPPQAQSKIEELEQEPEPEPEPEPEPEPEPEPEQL
The experiment in a line: flow cytometry, 10 ug/ml antibody on SEA-activated primary human CD4+ T cells (FIG. 6A).
On to B1, for which the binding result is “binds”.

For the molecule B2, the binding result is recorded as “binds”.

Turning to B3, the binding result is recorded as “binds”.

B4: the binding result is on record as “binds”.

With B5, the binding result was “binds”.

In the case of B6, the binding result was “binds”.

The next experiment concerns the target T2, recombinant human LAG-3 (human, UniProt P18627 23-450, limits assumed).
T2 sequence (looked up): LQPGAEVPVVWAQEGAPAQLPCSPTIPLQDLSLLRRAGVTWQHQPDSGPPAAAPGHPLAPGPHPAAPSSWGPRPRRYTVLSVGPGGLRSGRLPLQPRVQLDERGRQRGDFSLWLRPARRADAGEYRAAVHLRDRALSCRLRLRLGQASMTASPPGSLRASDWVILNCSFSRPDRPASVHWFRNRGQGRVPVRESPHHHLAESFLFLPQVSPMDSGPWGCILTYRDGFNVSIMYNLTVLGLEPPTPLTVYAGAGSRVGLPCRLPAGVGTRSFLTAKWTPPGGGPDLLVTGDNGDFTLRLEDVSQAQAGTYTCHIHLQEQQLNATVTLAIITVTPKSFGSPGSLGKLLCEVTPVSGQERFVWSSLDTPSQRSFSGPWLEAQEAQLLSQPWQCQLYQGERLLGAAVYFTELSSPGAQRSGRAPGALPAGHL
The experiment can be described thus: surface plasmon resonance (data not shown).
As to B1, the binding result is “binds”.

As to B2, the binding result was “binds”.

On to B3, for which the binding result is “binds”.

Consider B4, for which the binding result was “binds”.

Turning to B5, the binding result is “binds”.

As for B6, the binding result is on record as “binds”.
